Like-named read-outs stand apart in the source and are kept apart here.
How the values were obtained:
His-UBQ10 [1] = tested on: His-UBQ10
Flag-OsSPL14, Q7EXZ2 = target: T1, Flag-OsSPL14, Q7EXZ2
T1 chain: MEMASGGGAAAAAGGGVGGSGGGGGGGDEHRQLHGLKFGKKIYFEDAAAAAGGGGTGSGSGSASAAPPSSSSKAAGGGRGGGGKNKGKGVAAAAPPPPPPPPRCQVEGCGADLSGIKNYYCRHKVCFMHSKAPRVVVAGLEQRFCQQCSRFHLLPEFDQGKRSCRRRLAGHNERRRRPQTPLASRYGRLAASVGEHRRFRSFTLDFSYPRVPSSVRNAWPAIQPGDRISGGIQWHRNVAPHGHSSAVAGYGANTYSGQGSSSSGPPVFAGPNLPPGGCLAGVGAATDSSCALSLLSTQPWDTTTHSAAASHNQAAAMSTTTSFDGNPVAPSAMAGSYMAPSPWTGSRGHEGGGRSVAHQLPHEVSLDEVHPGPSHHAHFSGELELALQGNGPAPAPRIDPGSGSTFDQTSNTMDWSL

[2] = target: linear K48-linked tetra-ubiquitin (Boston Biochem)
[3] = target: linear K63-linked tetra-ubiquitin (Boston Biochem)
His-UBQ10 [4] = target: His-UBQ10; remark: listed apart in the source
[5] = target: T2, recombinant GST-OsSPL14 fusion protein, Q7EXZ2
T2 chain: T1 chain

OsSPL14 = target: T3, OsSPL14 (rice, UniProt Q7EXZ2 1-417); assay: summary sentence of Example 1
T3 construct: also called SBP-domain transcription factor OsSPL14
T3 sequence (looked up): T1 chain

OsUBC13 = target: T4, OsUBC13 (rice); assay: summary sentence of Example 1
T4 construct: Used for sentences that name OsUBC13 in general or cover several assay formats; also called E2 ubiquitin-conjugating protein
T4 chain: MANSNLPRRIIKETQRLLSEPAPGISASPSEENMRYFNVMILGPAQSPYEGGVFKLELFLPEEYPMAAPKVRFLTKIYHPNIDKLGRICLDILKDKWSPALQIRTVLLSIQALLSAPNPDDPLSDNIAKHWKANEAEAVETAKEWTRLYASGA

[6] = target: T5, full length OsUBC13 in pGADT7 (rice); assay: yeast two-hybrid (pGBKT7 / pGADT7, strain AH109)
T5 construct: Yeast two-hybrid prey; not shown: fusion partner encoded by vector pGADT7
T5 chain: T4 chain
Experimental: Yeast two-hybrid assays. Yeast two-hybrid assays were performed as described elsewhere^{14, 21}. The full length OsOTUB1.1 cDNA and an OsOTUB1 C-terminal fragment were amplified from ZH11 cDNA and inserted into pGBKT7 (Takara Bio Inc.), while the full length OsUBC13 cDNA and an OsSPL14 C-terminal fragment were inserted into pGADT7 (Takara Bio Inc.). Each of these plasmids was validated by sequencing before being transformed into yeast strain AH109. The required β-galactosidase assays were performed according to the manufacturer's (Takara Bio Inc.) protocol. Cells harboring either an empty pGBKT7 or an empty pGADT7 were used as the negative control. The entire OsOTUB1 sequence or a C-terminal fragment were used as the bait to screen a cDNA library prepared from poly(A)-containing RNA isolated from rice young panicles (<0.2 cm in length). The experimental procedures for screening and plasmid isolation followed the manufacturer's (Takara Bio Inc.) protocol.

[7] = target: T6, YFP-fragment-tagged OsUBC13 (BiFC construct) (rice); assay: BiFC in rice protoplasts
T6 construct: BiFC in rice protoplasts; not shown: YFP fragment from pSY-735-35S-cYFP-HA or pSY-736-35S-nYFP-EE
T6 chain: T4 chain

[8] = target: T7, N-terminus of YFP-tagged deleted version of OsSPL14 (rice, UniProt Q7EXZ2 1-417); assay: BiFC in rice protoplasts with deleted versions of OsSPL14
T7 construct: not shown: N-terminal fragment of YFP
T7 sequence (looked up): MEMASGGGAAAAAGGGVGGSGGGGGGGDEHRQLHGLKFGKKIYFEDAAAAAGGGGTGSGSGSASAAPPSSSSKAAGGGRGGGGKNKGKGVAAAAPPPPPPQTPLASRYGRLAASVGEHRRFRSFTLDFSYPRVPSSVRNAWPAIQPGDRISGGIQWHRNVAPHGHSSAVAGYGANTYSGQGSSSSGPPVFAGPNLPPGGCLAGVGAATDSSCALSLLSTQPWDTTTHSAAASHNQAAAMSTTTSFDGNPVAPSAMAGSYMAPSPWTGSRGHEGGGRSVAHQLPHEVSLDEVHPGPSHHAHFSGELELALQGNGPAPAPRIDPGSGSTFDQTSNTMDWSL
Text: (a) BiFC assays. The N-terminus of YFP-tagged OsSPL14, SBP-domain or a deleted version of OsSPL14 was co-transformed into rice protoplasts along with the C-terminus of YFP-tagged OsOTUB1.1. Panels (from left to right): DAPI staining, YFP signal, differential interference contrast, merged channel. Scale bar: 10 μm. (b) Co-immunoprecipitation of OsOTUB1.1-GFP and OsSPL14. IB, Immunoblot; IP, immunoprecipitation. (c) Plant morphology. Scale bar: 20 cm. (d) Panicle morphology. Scale bar: 5 cm. (e) OsSPL14 transcript abundance. Transcription relative to the level of the ZH11 plants set to be one. Data shown as mean±s.e.m. (n=3). (f) The number of tillers per plant. (g) The number of grains per panicle. (h) Culm diameter. All phenotypic data were measured from the field-grown plants under normal cultivation conditions. Data in f-h shown as mean±s.e.m. (n=120). The presence of the same lowercase letter denotes a non-significant difference between means (P<0.05).

Molecule: MBP-WTG1^D68E;C71S;H267R
- in vitro deubiquitination assay (cleavage of His-UBQ10, SDS-PAGE and anti-His blot) (His-UBQ10 [1]): MBP-WTG1^wtg1-1, MBP-WTG1^D68E;C71S;H267R and MBP did not cleave His-UBQ10

B1: Myc-OsOTUB1.1 (protein)
chain: MGGDYYHSCCGDPDPDLRAPEGPKLPYVGDKEPLSTLAAEFQSGSPILQEKIKLLGEQYDALRRTRGDGNCFYRSFMFSYLEHILETQDKAEVERILKKIEQCKKTLADLGYIEFTFEDFFSIFIDQLESVLQGHESSIGAEELLERTRDQMVSDYVVMFFRFVTSGEIQRRAEFFEPFISGLTNSTVVQFCKASVEPMGEESDHVHIIALSDALGVPIRVMYLDRSSCDAGNISVNHHDFSPEANSSDGAAAAEKPYITLLYRPGHYDILYPK
- accumulation of Flag-OsSPL14 in rice protoplasts (immunoblot) (Flag-OsSPL14, Q7EXZ2): Myc-OsOTUB1 promoted the degradation of Flag-OsSPL14 only in the presence of either WT-, K63O- or K48R-linked ubiquitins
- ubiquitination of Flag-OsSPL14 in rice protoplasts (anti-Flag IP, anti-HA blot) (Flag-OsSPL14, Q7EXZ2): In the presence of Myc-OsOTUB1.1, the titer of ubiquitinated Flag-OsSPL14 was clearly decreased in the presence of either K48R or K63O mutations, but it remained unaffected by the presence of either K48O or K63R mutations

B2: recombinant OsOTUB1.1 of the tetra-ubiquitin cleavage assay (protein)
chain: B1 chain
- cleavage of linear Lys48-linked tetra-ubiquitin (western blot, anti-ubiquitin) [2]: it showed a strong cleavage activity when presented with Lys48-linked tetra-ubiquitin
- cleavage of linear Lys63-linked tetra-ubiquitin (western blot, anti-ubiquitin) [3]: it also displayed a moderate level of activity when presented with the Lys63-linked forms

B3: MBP-WTG1 (protein)
chain: B1 chain
- in vitro deubiquitination assay (cleavage of His-UBQ10, SDS-PAGE and anti-His blot) (His-UBQ10 [4]): MBP-WTG1 was capable of cleaving His-UBQ10

B4: recombinant His-OsOTUB1 fusion protein (protein)
chain: B1 chain
- degradation of GST-OsSPL14 in young panicle lysates (anti-GST western blot over time) [5]: the degradation of GST-OsSPL14 was accelerated in lysates made from ZH11-npt1 panicles in the presence of His-OsOTUB1

B5: OsOTUB1 (enzyme)
chain: B1 chain
notes: Used for sentences that name OsOTUB1 in general or cover several assay formats; also called NPT1; DEP5
- binding result (OsSPL14): binds
- binding result (OsUBC13): binds

B6: full length OsOTUB1.1 in pGBKT7 (enzyme)
chain: B1 chain
notes: Yeast two-hybrid bait; not shown: fusion partner encoded by vector pGBKT7
- binding result [6]: binds

B7: C-terminus of YFP-tagged OsOTUB1.1 (enzyme)
chain: B1 chain
notes: BiFC construct expressed in rice protoplasts; also called cYFP-OsOTUB1; cYFP-OsOTUB1.1; not shown: C-terminal fragment of YFP from vector pSY-735-35S-cYFP-HA
- binding result [7]: binds
- binding result [8]: no binding
